Data taken from the supplement of paper PMC5998384.

What was measured:
[1] = system: HeLa Kyoto; assay: solubility change mitosis vs G1/S (difference of NP-40 vs SDS log2 ratios) (log2 ratio difference); higher = more soluble in mitosis
[2] = system: HeLa Kyoto; assay: thermal stability score vs G1/S (z-score of summed log2 fold changes over temperatures); higher = more thermally stable than in G1/S
[3] = system: HeLa Kyoto; assay: solubility in G1/S (NP-40 vs SDS abundance) (log2 ratio); higher = more soluble; settings: cell cycle stage: G1/S
[4] = cell cycle stage: early G1 (4.5 h after nocodazole release)
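Wherever solubility change mitosis vs G1/S (difference of NP-40 vs SDS log2 ratios) is given: synchronized HeLa Kyoto cells (double thymidine block for G1/S, nocodazole release for mitosis), protein amounts in NP-40 versus SDS lysates quantified by mass spectrometry, three biological replicates.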
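Wherever solubility in G1/S (NP-40 vs SDS abundance) is given: HeLa Kyoto cells arrested at G1/S by double thymidine block, proteins quantified by TMT10plex mass spectrometry in mild NP-40 versus SDS extracts, three biological replicates.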
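Wherever thermal stability score vs G1/S (z-score of summed log2 fold changes over temperatures) is given: synchronized HeLa Kyoto cells, proteins quantified by TMT10plex mass spectrometry, three biological replicates, mitosis taken 0.5 h after nocodazole release, G1/S directly after double thymidine block.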

Substance	solubility change mitosis (log2) [1]	thermal stability score [2, 4]	thermal stability score ([2]; cell cycle stage: mitosis)	solubility in G1/S (log2) [3]
MEGVSALLARCPTAGLAGGLGVTACAAAGVLLYRIARRMKPTHTMVNCWFCNQDTLVPYGNRNCWDCPHCEQYNGFQENGDYNKPIPAQYLEHLNHVVSSAPSLRDPSQPQQWVSSQVLLCKRCNHHQTTKIKQLAAFAPREEGRYDEEVEVYRHHLEQMYKLCRPCQAAVEYYIKHQNRQLRALLLSHQFKRREADQTHAQNFSSAVKSPVQVILLRALAFLACAFLLTTALYGASGHFAPGTTVPLALPPGGNGSATPDNGTTPGAEGWRQLLGLLPEHMAEKLCEAWAFGQSHQTGVVALGLLTCLLAMLLAGRIRLRRIDAFCTCLWALLLGLHLAEQHLQAASPSWLDTLKFSTTSLCCLVGFTAAVATRKATGPRRFRPRRFFPGDSAGLFPTSPSLAIPHPSVGGSPASLFIPSPPSFLPLANQQLFRSPRRTSPSSLPGRLSRALSLGTIPSLTRADSGYLFSGSRPPSQVSRSGEFPVSDYFSLLSGSCPSSPLPSPAPSVAGSVASSSGSLRHRRPLISPARLNLKGQKLLLFPSPPGEAPTTPSSSDEHSPHNGSLFTMEPPHVPRKPPLQDVKHALDLRSKLERGSACSNRSIKKEDDSSQSSTCVVDTTTRGCSEEAATWRGRFGPSLVRGLLAVSLAANALFTSVFLYQSLR [TMEM201]	0.283	0.522	0.638	-0.162
MGDMKTPDFDDLLAAFDIPDPTSLDAKEAIQTPSEENESPLKPPGICMDESVSLSHSGSAPDVPAVSVIVKNTSRQESFEAEKDHITPSLLHNGFRGSDLPPDPHNCGKFDSTFMNGDSARSFPGKLEPPKSEPLPTFNQFSPISSPEPEDPIKDNGFGIKPKHSDSYFPPPLGCGAVGGPVLEALAKFPVPELHMFDHFCKKEPKPEPLPLGSQQEHEQSGQNTVEPHKDPDATRFFGEALEFNSHPSNSIGESKGLARELGTCSSVPPRQRLKPAHSKLSSCVAALVALQAKRVASVTKEDQPGHTKDLSGPTKESSKGSPKMPKSPKSPRSPLEATRKSIKPSDSPRSICSDSSSKGSPSVAASSPPAIPKVRIKTIKTSSGEIKRTVTRILPDPDDPSKSPVGSPLGSAIAEAPSEMPGDEVPVEEHFPEAGTNSGSPQGARKGDESMTKASDSSSPSCSSGPRVPKGAAPGSQTGKKQQSTALQASTLAPANLLPKAVHLANLNLVPHSVAASVTAKSSVQRRSQPQLTQMSVPLVHQVKKAAPLIVEVFNKVLHSSNPVPLYAPNLSPPADSRIHVPASGYCCLECGDAFALEKSLSQHYGRRSVHIEVLCTLCSKTLLFFNKCSLLRHARDHKSKGLVMQCSQLLVKPISADQMFVSAPVNSTAPAAPAPSSSPKHGLTSGSASPPPPALPLYPDPVRLIRYSIKCLECHKQMRDYMVLAAHFQRTTEETEGLTCQVCQMLLPNQCSFCAHQRIHAHKSPYCCPECGVLCRSAYFQTHVKENCLHYARKVGYRCIHCGVVHLTLALLKSHIQERHCQVFHKCAFCPMAFKTASSTADHSATQHPTQPHRPSQLIYKCSCEMVFNKKRHIQQHFYQNVSKTQVGVFKCPECPLLFVQKPELMQHVKSTHGVPRNVDELSSLQSSADTSSSRPGSRVPTEPPATSVAARSSSLPSGRWGRPEAHRRVEARPRLRNTGWTCQECQEWVPDRESYVSHMKKSHGRTLKRYPCRQCEQSFHTPNSLRKHIRNNHDTVKKFYTCGYCTEDSPSFPRPSLLESHISLMHGIRNPDLSQTSKVKPPGGHSPQVNHLKRPVSGVGDAPGTSNGATVSSTKRHKSLFQCAKCSFATDSGLEFQSHIPQHQVDSSTAQCLLCGLCYTSASSLSRHLFIVHKVRDQEEEEEEEAAAAEMAVEVAEPEEGSGEEVPMETRENGLEECAGEPLSADPEARRLLGPAPEDDGGHNDHSQPQASQDQDSHTLSPQV [ZNF592]	0.109	-0.704	-1.78	-0.283
MGSENSALKSYTLREPPFTLPSGLAVYPAVLQDGKFASVFVYKRENEDKVNKAAKHLKTLRHPCLLRFLSCTVEADGIHLVTERVQPLEVALETLSSAEVCAGIYDILLALIFLHDRGHLTHNNVCLSSVFVSEDGHWKLGGMETVCKVSQATPEFLRSIQSIRDPASIPPEEMSPEFTTLPECHGHARDAFSFGTLVESLLTILNEQVSADVLSSFQQTLHSTLLNPIPKCRPALCTLLSHDFFRNDFLEVVNFLKSLTLKSEEEKTEFFKFLLDRVSCLSEELIASRLVPLLLNQLVFAEPVAVKSFLPYLLGPKKDHAQGETPCLLSPALFQSRVIPVLLQLFEVHEEHVRMVLLSHIEAYVEHFTQEQLKKVILPQVLLGLRDTSDSIVAITLHSLAVLVSLLGPEVVVGGERTKIFKRTAPSFTKNTDLSLEDSPMCVVCSHHSQISPILENPFSSIFPKCFFSGSTPINSKKHIQRDYYNTLLQTGDPFSQPIKFPINGLSDVKNTSEDSENFPSSSKKSEEWPDWSEPEEPENQTVNIQIWPREPCDDVKSQCTTLDVEESSWDDCEPSSLDTKVNPGGGITATKPVTSGEQKPIPALLSLTEESMPWKSSLPQKISLVQRGDDADQIEPPKVSSQERPLKVPSELGLGEEFTIQVKKKPVKDPEMDWFADMIPEIKPSAAFLILPELRTEMVPKKDDVSPVMQFSSKFAAAEITEGEAEGWEEEGELNWEDNNW [SCYL3]	-0.0596	0.969	0.364	-0.0689
MKHINLSFAACGFLGIYHLGAASALCRHGKKLVKDVKAFAGASAGSLVASVLLTAPEKIEECNQFTYKFAEEIRRQSFGAVTPGYDFMARLRSGMESILPPSAHELAQNRLHVSITNAKTRENHLVSTFSSREDLIKVLLASSFVPIYAGLKLVEYKGQKWVDGGLTNALPILPVGRTVTISPFSGRLDISPQDKGQLDLYVNIAKQDIMLSLANLVRLNQALFPPSKRKMESLYQCGFDDTVKFLLKENWFE [PNPLA4]	-0.145	0.304	1.11	0.107
MELRARGWWLLCAAAALVACARGDPASKSRSCGEVRQIYGAKGFSLSDVPQAEISGEHLRICPQGYTCCTSEMEENLANRSHAELETALRDSSRVLQAMLATQLRSFDDHFQHLLNDSERTLQATFPGAFGELYTQNARAFRDLYSELRLYYRGANLHLEETLAEFWARLLERLFKQLHPQLLLPDDYLDCLGKQAEALRPFGEAPRELRLRATRAFVAARSFVQGLGVASDVVRKVAQVPLGPECSRAVMKLVYCAHCLGVPGARPCPDYCRNVLKGCLANQADLDAEWRNLLDSMVLITDKFWGTSGVESVIGSVHTWLAEAINALQDNRDTLTAKVIQGCGNPKVNPQGPGPEEKRRRGKLAPRERPPSGTLEKLVSEAKAQLRDVQDFWISLPGTLCSEKMALSTASDDRCWNGMARGRYLPEVMGDGLANQINNPEVEVDITKPDMTIRQQIMQLKIMTNRLRSAYNGNDVDFQDASDDGSGSGSGDGCLDDLCSRKVSRKSSSSRTPLTHALPGLSEQEGQKTSAASCPQPPTFLLPLLLFLALTVARPRWR [GPC1]	-0.378	1.52	3.51	-0.193
MEEEDEEARALLAGGPDEADRGAPAAPGALPALCDPSRLAHRLLVLLLMCFLGFGSYFCYDNPAALQTQVKRDMQVNTTKFMLLYAWYSWPNVVLCFFGGFLIDRVFGIRWGTIIFSCFVCIGQVVFALGGIFNAFWLMEFGRFVFGIGGESLAVAQNTYAVSWFKGKELNLVFGLQLSMARIGSTVNMNLMGWLYSKIEALLGSAGHTTLGITLMIGGITCILSLICALALAYLDQRAERILHKEQGKTGEVIKLTDVKDFSLPLWLIFIICVCYYVAVFPFIGLGKVFFTEKFGFSSQAASAINSVVYVISAPMSPVFGLLVDKTGKNIIWVLCAVAATLVSHMMLAFTMWNPWIAMCLLGLSYSLLACALWPMVAFVVPEHQLGTAYGFMQSIQNLGLAIISIIAGMILDSRGYLFLEVFFIACVSLSLLSVVLLYLVNRAQGGNLNYSARQREEIKFSHTE [MFSD1]	-0.327	-0.307	-0.166	-0.268
SNRPF	-0.0169	-0.0433	-0.451	-1.06
MKEGRGSFSVERGPRKERETAQSGMWKGNSPAGSQGAAMEGTGGELGGQGNWGPEDAPGLLARASLIMLPWPLPLASSALTLLFGALTSLFLWYCYRLGSQDMQALGAGSRAGGVRGGPVGCSEAGGPSPGGPGDPGEGPRTEGLVSRRLRAYARRYSWAGMGRVRRAAQGGPGPGRGPGVLGIQRPGLLFLPDLPSAPFVPRDAQRHDVELLESSFPAILRDFGAVSWDFSGTTPPPRGWSPPLAPGCYQLLLYQAGRCQPSNCRRCPGAYRALRGLRSFMSANTFGNAGFSVLLPGARLEGRCGPTNARVRCHLGLKIPPGCELVVGGEPQCWAEGHCLLVDDSFLHTVAHNGSPEDGPRVVFIVDLWHPNVAGAERQALDFVFAPDP [ASPHD1]	-0.229	1.03	1.87	0.213
MAGKAAAPGTAVLLVTANVGSLFDDPENLQKNWLREFYQVVHTHKPHFMALHCQEFGGKNYEASMSHVDKFVKELLSSDAMKEYNRARVYLDENYKSQEHFTALGSFYFLHESLKNIYQFDFKAKKYRKVAGKEIYSDTLESTPMLEKEKFPQDYFPECKWSRKGFIRTRWCIADCAFDLVNIHLFHDASNLVAWETSPSVYSGIRHKALGYVLDRIIDQRFEKVSYFVFGDFNFRLDSKSVVETLCTKATMQTVRAADTNEVVKLIFRESDNDRKVMLQLEKKLFDYFNQEVFRDNNGTALLEFDKELSVFKDRLYELDISFPPSYPYSEDARQGEQYMNTRCPAWCDRILMSPSAKELVLRSESEEKVVTYDHIGPNVCMGDHKPVFLAFRIMPGAGKPHAHVHKCCVVQ [INPP5A]	-0.17	0.56	-0.257	-0.359
ASPM	0.177	0.917	-0.0273	-0.625
MVRGARQPQQPRSRLAPRLTGTVEKPPRKRRSRTEFALKEIMSSGGAEDDIPQGERKTVTDFCYLLDKSKQLFNGLRDLPQYGQKQWQSYFGRTFDVYTKLWKFQQQHRQVLDNRYGLKRWQIGEIASKIGQLYYHYYLRTSETSYLNEAFSFYSAIRQRSYYSQVNKEDRPELVVKKLRYYARFIVVCLLLNKMDVVKDLVKELSDEIEDYTHRFNTEDQVEWNLVLQEVAAFIEADPVMVLNDDNTIVITSNRLAETGAPLLEQGMIVGQLSLADALIIGNCNNQVKFSELTVDMFRMLQALEREPMNLASQMNKPGMQESADKPTRRENPHKYLLYKPTFSQLYTFLAASFKELPANSVLLIYLSATGVFPTGRSDSEGPYDFGGVLTNSNRDIINGDAIHKRNQSHKEMHCLHPGDLYPFTRKPLFIIVDSSNSVAYKNFTNLFGQPLVCLLSPTAYPKALQDQSQRGSLFTLFLNNPLMAFLFVSGLSSMRRGLWEKCQEYLRKINRDIAQLLTHSRSIDQAFLQFFGDEFLRLLLTRFIFCSATMRMHKIFRETRNYPESYPQLPRDETVENPHLQKHILELASILDVRNVFFENTIDDY [SCAI]	-0.117	0.148	-0.274	-0.309
MEREPGAAGVRRALGRRLEAVLASRSEANAVFDILAVLQSEDQEEIQEAVRTCSRLFGALLERGELFVGQLPSEEMVMTGSQGATRKYKVWMRHRYHSCCNRLGELLGHPSFQVKELALSALLKFVQLEGAHPLEKSKWEGNYLFPRELFKLVVGGLLSPEEDQSLLLSQFREYLDYDDTRYHTMQAAVDAVARVTGQHPEVPPAFWNNAFTLLSAVSLPRREPTVSSFYVKRAELWDTWKVAHLKEHRRVFQAMWLSFLKHKLPLSLYKKVLLIVHDAILPQLAQPTLMIDFLTRACDLGGALSLLALNGLFILIHKHNLEYPDFYRKLYGLLDPSVFHVKYRARFFHLADLFLSSSHLPAYLVAAFAKRLARLALTAPPEALLMVLPFICNLLRRHPACRVLVHRPHGPELDADPYDPGEEDPAQSRALESSLWELQALQRHYHPEVSKAASVINQALSMPEVSIAPLLELTAYEIFERDLKKKGPEPVPLEFIPAQGLLGRPGELCAQHFTLS [NOC4L]	0.579	-3.25e-17	3.03e-17	-1.47
